Consider 30 sequences from the nanobody polyreactivity screen of Harvey et al. (2022).

The nature of the data set: yeast display, Sf9 membrane polyspecificity reagent, FACS + sequencing; frameworks hold sequencing errors. In a few lines:
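Galactose induction of a Saccharomyces cerevisiae BJ5465 synthetic nanobody display library ran 36–48 hours. The cells were then stained for 1 hour at 4 °C with 10% biotinylated, detergent-solubilized Sf9 membrane reagent, pulled down on streptavidin microbeads and FACS-sorted into low and high (top ~1%) gates on expression and reagent-binding fluorescence. Labels for polyreactivity follow the gate of origin.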
Take “QVQLVESGGGLVQAGGSLRLSCAASGRIFYYNAMGWYRPAPGKERELVAAITYIGGNTHYADSVKGRFTISRDNAKYTVYLQMNSLKPEDTAVYYCARGTVLGFYYEYGYWGQGTQVTVSS”: the “polyreactivity (PSR sort gate)” value is given as “low polyreactivity”. In the case of “QVQLVESGGGLVQAGGSLRLSCAASGRIFYYNAMGWYRQAPGKERELVAAISYTSGRTYYADSVKGRFTISRDNAKNTVYLQMNSLKPEDTAVYYCAADYYLRKGMDYWGQVTQVTVSS”, the “polyreactivity (PSR sort gate)” value is given as “low polyreactivity”. The value for “QVQLVESGGGLVQAGGSLRLSCAASGRIFYYNAMGWYRQAPGKERELVAAITSGGSTNYADSVKGRFTISRDNAKNTVYLQMNSLNPEDTAVYYCAADYYYYVAGVHYDYWGQGTLVTVSS” was “low polyreactivity”; that for “QVQLVESGGGLVQAGGSLRLSCAASGRIFYYNAMGWYRQAPRKERELVASITGSGGSTYYADSVKGRFTISRDNAKNTVYLQMNSLKPEDSAVYYCAKREYLYRYYYVAKYDYWGQGTQVSVSS” was “low polyreactivity”; that for “QVQLVESGGGLVQAGGSLRLSCAASGRIFYYNPMGWYRQAPGKERELVAAITKSGGRTYYADSVKGRFTISRDNSKNTVYLQMYSLKPEDTAVYYCAALSRAGEYDYWGQGTQVTVSS” was “high polyreactivity”. The value for “QVQLVESGGGLVQAGGSLRLSCAASGRIFYYNSMGWYREAPGKERELVAAIRSGGGSTYYADSVKGRFTISRDNAKNTVYLQMNSLKPEDTAVYYCAAEPSQRYPWSGYDYWGQGTQVTVSS” was “low polyreactivity”; that for “QVQLVESGGGLVQAGGSLRLSCAASGRIFYYNVMGWYRQAPGKEREFVAAISTRTGSTYYADSVKGRFTISRDNAKNTVYLQMNSLKPEDTAVYYCAAPYRAYSYDYWGQGTQVTVSS” was “high polyreactivity”; that for “QVQLVESGGGLVQAGGSLRLSCAASGRIFYYNVMGWYRQAPGKERELVASISYSSTRTYYADSVKGRFTISRDNAKNTVYLQMNSLKPEDTAVYYCAVDTYAYRGVSYWSERTYYYWGQGTQVTVSS” was “low polyreactivity”. The entry for “QVQLVESGGGLVQAGGSLRLSCAASGRIFYYYAMAWYRQAPGKERELVAAITRRGGSTYYADSVKGRFTISRDIAKNTVYFQMNSLKPEDTAVYYCAKPDRTGWLDGDYWGQGTQVTVSS” is “low polyreactivity”. For “QVQLVESGGGLVQAGGSLRLSCAASGRIFYYYAMGRYRQAPGKERELVAAITQSGGSTYYADSVKGRFTISRDNAKNTVYLQMNSLKPEDTAVYYCNAVLSSNTKWRYPGDYWGQGTQVTVSS”, the “polyreactivity (PSR sort gate)” value was “low polyreactivity”. The value for “QVQLVESGGGLVQAGGSLRLSCAASGRIFYYYAMGWYREAPGKEREFVARNRSSGGSTYADSVKGRFTISRDNAKNTVYLQMNSLKPEDTAVYYCARDGYTAVEYDYWGQGTQVTVSS” was “low polyreactivity”. The value for “QVQLVESGGGLVQAGGSLRLSCAASGRIFYYYAMGWYRQAPGKEREFVAAITGRGGSTYYADSVKGRFTISRDNAKNTVYLQMNSLKPEDTAVYYCNAGQYFEYYGWYSRYGYWGQGTQVTVSS” was “low polyreactivity”; that for “QVQLVESGGGLVQAGGSLRLSCAASGRIFYYYAMGWYRQAPGKEREFVAAITGRGGSTYYADSVKGRFTISRDNEKNTVYLQMYSLKPEDTAVYYCNAGQYFEYYGWYSRYGYWGQGTQVTVSS” was “low polyreactivity”. Take “QVQLVESGGGLVQAGGSLRLSCAASGRIFYYYAMGWYRQAPGKERELVAAINRSGGSTYYADSVKGRFTISRDNAKNTVYLQMNSLKPEDTAVYYCASYDYWGQGTQVTVSS”: the “polyreactivity (PSR sort gate)” value was “high polyreactivity”. On to “QVQLVESGGGLVQAGGSLRLSCAASGRIFYYYAMGWYRQAPGKERELVAAISQRGGRTYYADSVKGRFTISRDNAKNTVYLQMYSLNQEDPAVYYCNVAGVVYPWYYYWGQGTQVTVSS”, for which the “polyreactivity (PSR sort gate)” value was “high polyreactivity”. Take “QVQLVESGGGLVQAGGSLRLSCAASGRIFYYYAMGWYRQAPGKERELVAGIDSGDSTNYADSVKGRFTISRDNAKNTVYLQLNSLKPEDTAVYYCAALHYGGYFSYYPYYYWGQGTQVTVSS”: the “polyreactivity (PSR sort gate)” value is listed as “low polyreactivity”.

For “QVQLVESGGGLVQAGGSLRLSCAASGRIFYYYAMGWYRQAPGKERELVATISRAGITNYADSVKGRFTISRDNAKNTVYLQMNSLKPEDTAVYYCADTFYPWRYNYEYWGQGTQVTVSS”, the “polyreactivity (PSR sort gate)” value was “high polyreactivity”. As for “QVQLVESGGGLVQAGGSLRLSCAASGRIFYYYAMGWYRQAPGKERELVAVISRGGRTKYADSVKGRFTISRDNAKNTVYLQMNSLKPEDTAFYYCAAYPSYYGDSGLRYDYWGQGTQVPVSS”, the “polyreactivity (PSR sort gate)” value was “high polyreactivity”. The entry for “QVQLVESGGGLVQAGGSLRLSCAASGRIFYYYAMGWYRQAPGTERELVASINSVGTTTYADSVKGRFTISRDNAKNTVYLEMNSLKPEDTAVYYCARDTGSIYYDGYEYDYWGQGTQVTVSS” is “low polyreactivity”; for “QVQLVESGGGLVQAGGSLRLSCAASGRIFYYYAMLWYRQAPGKERELVAAIRRGGSTNYADSVKGRFTISRDNAKNTVYLQMNSLKPEETAVYYCAARSARLEYYYWGQGTQVTVSS” it is “high polyreactivity”; for “QVQLVESGGGLVQAGGSLRLSCAASGRIFYYYGMGWYRQAPGKERELVAAISNGGRTYYADSVKGRFTISRDNAKNTVYLQMTSLKPEDTAVYYCAALTRGRGGYDYWGQGTQVTVSS” it is “high polyreactivity”. “QVQLVESGGGLVQAGGSLRLSCAASGRIFYYYPMGWYRQAPGKEMELVARITGLTGRTYYADSVKGRFTISRDNSKNTVYLHMHSLKPQDTAVYYCAATDRWSRLGYWGQGTQVTVSS”: the “polyreactivity (PSR sort gate)” value was “high polyreactivity”.

Consider “QVQLVESGGGLVQAGGSLRLSCAASGRIFYYYVMGWYRQAPGKERELVATITKRGGDTYYADSVKGRFTISRDNAKNTVYLQMNSLKPEDTAVYYCAAVYLYYSRSDLYDYWGQGTQVTVSS”, for which the “polyreactivity (PSR sort gate)” value was “low polyreactivity”. With “QVQLVESGGGLVQAGGSLRLSCAASGRIGAYAMGWYRQAPGKERELVAAIRWSTGSTYYADSVKGRFTISRDNAKNTVFLQMNSLKPEDTAVYYCAAEFVRRGGDFWGQGTQVTVSS”, the “polyreactivity (PSR sort gate)” value is “high polyreactivity”. For “QVQLVESGGGLVQAGGSLRLSCAASGRIGRYAMGWYRQAPGKERELVAAITWSGGSTYYADSVKGRFTISRDNAKNTVYLQMNSLKPEDTAVYYCATGRYRDQPRTGYDYWGQGTQVTVSS”, the “polyreactivity (PSR sort gate)” value was “high polyreactivity”.

Regarding “QVQLVESGGGLVQAGGSLRLSCAASGRIHVYTMRWYRQAPGQERELVAAITWSGTSTNYADSVKGRFTLSRDNAKNTVYLKMNILKPEDTAVYYCAADISGVLSVSNVRGFDYWGQGTQVTVSS”, the “polyreactivity (PSR sort gate)” value was “low polyreactivity”. With “QVQLVESGGGLVQAGGSLRLSCAASGRIIADNAMGWYRQAPGKERELVATISSGGSTSYADSVKGRFTLSRDNAKNTVYLQMNSLKPEDTAVYYCATPFTGPSGPYDYWGQGTQGTVSS”, the “polyreactivity (PSR sort gate)” value was “low polyreactivity”. In the case of “QVQLVESGGGLVQAGGSLRLSCAASGRIIALNAMGWYRQAPGKERELVAAISRRGGSTYYADSVKGRFTISRDNAKNTVYLQMNSLKPEDTAVYYCATDSVRYGYDYWGQGTQVTVSS”, the “polyreactivity (PSR sort gate)” value is given as “high polyreactivity”. The entry for “QVQLVESGGGLVQAGGSLRLSCAASGRIIARNAMGWYRQAPGKEREFVAAITARGARTYYADSVKGRFTISRDNAKNTVYLQMNSLKPEDTAVYYCAVVQGNVYYTGDDYWGQGTQVTVSS” is “high polyreactivity”. The entry for “QVQLVESGGGLVQAGGSLRLSCAASGRIIAVYAMGWYRQAPGKERELVATIRGGGSTNYADSVKGRFTISRDNAKNTVYLQMNSLKPEDTAVYYCAALGGRYRASTYGYWGQGTQVTVSS” is “high polyreactivity”.
